Usually Kd stands for the free concentration of one partner at which half of the binding sites on the other are occupied at equilibrium, for simple one-to-one binding.

These results are taken from publication PMC12689202.

The target in the assay is C3b (biotinylated) (human) (UniProt P01024). The assay is described as follows: BLI; Octet RH384 (Sartorius); biotinylated C3b immobilized onto streptavidin biosensors; mini-CR1, FH or FHL-1 in the fluid phase. On the technique in general: Biolayer interferometry detects binding as a change in optical thickness at a sensor tip.
Take “factor H (from UniProt P08603 19-1231) (natural protein)”: the Kd is 583 nM. This counts as sub-micromolar.
Substance “mini-CR1 (soluble fragment of complement receptor 1, complement control proteins 8-10) (domain or fragment)” came in with an equilibrium dissociation constant (Kd) of 21 nM.
The substance “factor H-like protein 1 (from UniProt P08603-2 19-449) (natural protein)” registered a Kd of 1170 nM.
